The record followed here is patent US20100143940A1, “(3R)-HYDROXYACYL-ACP DEHYDRATASE ENZYMES USED IN THE BIOSYNTHESIS OF MYCOLIC ACIDS AND USE OF SAME FOR SCREENING ANTIBIOTICS” (priority 2007, published 2010).

The target in series [1] is 2-trans-octenoyl-ACP (UniProt P0A6A8).
For series [2], the target named is T1, 2-trans-octenoyl-ACP, P0A6A8.
T1 chain: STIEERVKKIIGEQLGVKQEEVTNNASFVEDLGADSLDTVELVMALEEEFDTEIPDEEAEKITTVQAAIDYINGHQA

A short description of series [3]: Hydratase activity monitored by spectrophotometry at 263 nm, control experiments of the isomerase test. It is filed as biochemical. As to conditions: 2-trans-decenoyl-CoA 10 μM; Rv0635-Rv0636 80 nM or Rv0636-Rv0637 543 nM; 100 mM sodium phosphate pH 7.0, 25° C. The protocol: (§1) These reactions are monitored by spectrophotometry at 263 nm by means of a thermostated Uvikon 923 spectrophotometer (Kontron Instruments). They are carried out in a quartz cuvette (optical path of 1 cm) in a total volume of 700 μl at 25° C. The reaction mixture contains 100 mM sodium phosphate buffer, pH 7.0, and varying concentrations of substrates. After equilibration of the base line on the reaction mixture in the absence of the enzyme, the reactions are triggered by the addition of enzyme, and then monitored for 1.5 to 5 min. The reaction rate corresponds to the initial rate measured by plotting the tangent of the curve OD=f(time) at time zero.
The conversions corresponding to the hydration reaction and to the dehydration reaction are associated, respectively, with a decrease and with an increase in the absorbance at 263 nm, linked to the double bond conjugated to the carbonyl. A variation in OD263 of 0.67 corresponds to a variation in concentration of 100 μM.
(§2) The ability of the proteins to catalyze the isomerization reaction was studied in the presence of 3-cis-decenoyl-CoA (10 μM) and of Rv0635-Rv0636 enzyme (80 nM) or Rv0636-Rv0637 enzyme (543 nM). […] The reactions were monitored at 263 nm, where the increase in absorbance results from the conversion of the 3-cis-decenoyl-CoA into 2-trans-decenoyl-CoA.

Series [4] in a line: Isomerase activity, conversion of 3-cis-enoyl into 2-trans-enoyl, monitored at 263 nm. It is filed as biochemical. As to conditions: 3-cis-decenoyl-CoA 10 μM; Rv0635-Rv0636 80 nM or Rv0636-Rv0637 543 nM. As for the experimental part: as §1
As in certain FAS-II systems described, the dehydration step can be catalyzed either by a (3R)-hydroxyacyl-ACP dehydratase, or by a (3R)-hydroxyacyl-ACP dehydratase/isomerase of FabA type which, in vivo, converts the 2-trans-enoyls, formed by the dehydration step, into 3-cis-enoyls. […]
as §2

Series [5] can be described thus: Substrate specificity, 2-trans-enoyl-CoA of various chain lengths. It counts as biochemical. As for the experimental part: as §1
The substrate specificity was studied in the presence of 2-trans-enoyl-CoA of various chain lengths (C4-C20). The initial rates were measured and compared at a very low substrate concentration in order to reduce as much as possible the solubility problems encountered with these amphiphilic compounds. […]
The tests were carried out in 100 mM sodium phosphate buffer, pH 7.0, in the presence of 3-hydroxybutyryl-CoA (25 or 75 μM) or of 2-trans-octenoyl-CoA (25 μM) or of crotonoyl-CoA (25 μM), and of enzyme (Rv0635-Rv0636: 80 nM; Rv0636-Rv0637: 543 nM). […] After addition of the enzyme, the reactions were monitored by spectrophotometry at 263 nM for 1.5 min. […]

Series [6] deals with 2-trans-octenoyl-ACP. The experiment in a line: Study of the ACP-dependency, hydration of the ACP derivative at 263 nm. It is filed as biochemical, E. coli. As to conditions: 2-trans-octenoyl-ACP 2 μM; Rv0635-Rv0636 80 nM, Rv0636-Rv0637 311 nM, Rv0636 alone 311 nM.
A short description of series [7]: Study of the ACP-dependency, hydration of the CoA derivative at 263 nm. It counts as biochemical. As to conditions: 2-trans-octenoyl-CoA 2 μM; compared with control experiment (no enzyme). The protocol: as §1
The activities of the enzymes Rv0635-Rv0636 (80 nM), Rv0636-Rv0637 (311 nM) or Rv0636 alone (311 nM) were compared in the presence of 2-trans-octenoyl-ACP (2 μM) or of 2-trans-octenoyl-CoA (2 μM).

Consider Rv0635-Rv0636 heterodimer, for which the “specific activity (hydration followed at 263 nm), 2 µM substrate, 80 nM enzyme” value in the series with 2-trans-octenoyl-ACP [1] came out at 0.28 µmol/min/mg.

B1: Rv0636-Rv0637 heterodimer (protein)
chain 1: HHHHHHMALREFSSVKVGDQLPEKTYPLTRQDLVNYAGVSGDLNPIHWDDEIAKVVGLDTAIAHGMLTMGIGGGYVTSWVGDPGAVTEYNVRFTAVVPVPNDGKGAELVFNGRVKSVDPESKSVTIALTATTGGKKIFGRAIASAKLA
chain 2: MALKTDIRGMIWRYPDYFIVGREQCREFARAVKCDHPAFFSEEAAADLGYDALVAPLTFVTILAKYVQLDFFRHVDVGMETMQIVQVDQRFVFHKPVLAGDKLWARMDIHSVDERFGADIVVTRNLCTNDDGELVMEAYTTLMGQQGDGSARLKWDKESGQVIRTA
Turning to B1, the “specific activity (hydration followed at 263 nm), 2 µM substrate” value in series [2] is given as 0.047 µmol/min/mg of protein.

B2: Rv0636-Rv0637: recombinant heterodimeric (3R)-hydroxyacyl-ACP dehydratase of the M. tuberculosis H37Rv FAS-II system, Rv0636 plus Rv0637 (protein)
chain 1: HHHHHHMALREFSSVKVGDQLPEKTYPLTRQDLVNYAGVSGDLNPIHWDDEIAKVVGLDTAIAHGMLTMGIGGGYVTSWVGDPGAVTEYNVRFTAVVPVPNDGKGAELVFNGRVKSVDPESKSVTIALTATTGGKKIFGRAIASAKLA
chain 2: MALKTDIRGMIWRYPDYFIVGREQCREFARAVKCDHPAFFSEEAAADLGYDALVAPLTFVTILAKYVQLDFFRHVDVGMETMQIVQVDQRFVFHKPVLAGDKLWARMDIHSVDERFGADIVVTRNLCTNDDGELVMEAYTTLMGQQGDGSARLKWDKESGQVIRTA
Turning to B2, in series [3], the specific activity is recorded as 0.02 μmol/min/mg of protein. Moreover, the isomerase activity result in series [4] is recorded as “do not exhibit any isomerase activity”. Further, in series [5] (2.5 μM substrate), the “activity on C12-C20 trans-2-enoyl-CoAs at low substrate concentration” value is recorded as “no activity could be detected”. In addition, the “activity in the presence of short-chain (C4-C8) substrates” value in series [5] (2.5 or 25 μM 2-trans-enoyl-CoA, Rv0635-Rv0636 80 nM, Rv0636-Rv0637 543 nM) is “inactive”. Besides, the “specific activity in the presence of 2-trans-octenoyl-ACP” value with 2-trans-octenoyl-ACP [6] amounted to 0.047 µmol/min/mg. In series [7], the “activity in the presence of 2-trans-octenoyl-CoA” value was “not significant”.

B3: Rv0636 homodimer: recombinant Rv0636 protein of M. tuberculosis H37Rv (SEQ ID No. 2) carrying the hydratase 2 motif, tested alone (protein, listed as Mycobacterium tuberculosis)
chain: MALREFSSVKVGDQLPEKTYPLTRQDLVNYAGVSGDLNPIHWDDEIAKVVGLDTAIAHGMLTMGIGGGYVTSWVGDPGAVTEYNVRFTAVVPVPNDGKGAELVFNGRVKSVDPESKSVTIALTATTGGKKIFGRAIASAKLA
modifications: homodimer
Turning to B3, the “specific activity in the presence of 2-trans-octenoyl-ACP” value in the series on 2-trans-octenoyl-ACP [6] is listed as “no activity”.
